Assay [1] concerns the target T1, Full length human CD40 (huCD40) on cells (human, UniProt P25942 21-277). The assay is described as follows: cell-based or functional assay.
Assay [2] deals with T1, Full length human CD40 (huCD40) on cells. Kind of assay: cell-based or functional assay. The source holds these as a separate data set.
Assay [3] has the same target. The assay is described as follows: cell-based or functional assay. The source holds these as a separate data set.
Target sequence in this assay (P25942 21-277): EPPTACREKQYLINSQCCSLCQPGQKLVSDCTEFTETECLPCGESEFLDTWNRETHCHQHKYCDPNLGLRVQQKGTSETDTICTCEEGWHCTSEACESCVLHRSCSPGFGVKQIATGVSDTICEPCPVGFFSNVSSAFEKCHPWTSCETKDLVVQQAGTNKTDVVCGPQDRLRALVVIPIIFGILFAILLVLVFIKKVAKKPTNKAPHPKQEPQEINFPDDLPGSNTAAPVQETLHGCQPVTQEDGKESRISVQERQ
Assay [4] shares this target. The assay is described as follows: flow cytometry, human DCs. In general terms: Flow cytometry measures light scatter and fluorescence of single cells or particles in a stream.
Target sequence in this assay (P25942 21-277): as above
Assay [5] shares this target. The assay is described as follows: flow cytometry, Raji cells.
Assay [6] shares this target. Kind of assay: flow cytometry, human B cells.
Target sequence in this assay (P25942 21-277): as above
The target of assay [7] is T2, Macaca fascicularis (cyno) CD40 (cCD40) on cells (Macaca fascicularis (cynomolgus), UniProt P25942 21-277 (human entry)).
T2 construct: CD40 on cyno mature DCs
T2 chain: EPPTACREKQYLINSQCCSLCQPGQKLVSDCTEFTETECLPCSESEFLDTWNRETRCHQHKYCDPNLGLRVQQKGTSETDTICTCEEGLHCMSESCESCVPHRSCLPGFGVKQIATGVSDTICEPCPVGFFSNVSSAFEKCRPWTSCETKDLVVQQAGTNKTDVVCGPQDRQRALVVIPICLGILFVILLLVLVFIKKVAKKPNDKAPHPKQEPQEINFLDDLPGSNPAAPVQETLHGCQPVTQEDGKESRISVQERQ
The assay is described as follows: flow cytometry, cyno mature DCs. Here is the method: (§1) Human monocytes were isolated from either frozen/fresh PBMC using CD14 negative isolation kit per manufacturer's protocol (MACS Miltenyi). Cyno monocytes were isolated from fresh PBMC using CD14 positive isolation kit per manufacturer's protocol (MACS Miltenyi). To generate DCs, monocytes were cultured for 5 days in complete media RPMI (Invitrogen) in the presence of 100 ng/ml human GM-CSF and human IL-4 (Peprotech) and media was replenished every 2 days. On day 5, DCs were stimulated with 100 ng/ml LPS (Sigma) for 24 hours. Cells were then stained with each of the tested CD40 antibody at different concentration in flow cytometry buffer (PBS+1% FBS; BD Bioscience) in 100 μl volume for 30 minutes on ice followed with two washes with flow buffer. Cells were then stained for additional 30 minutes on ice with APC-conjugated anti human IgG (Jackson ImmunoResearch) at the recommended dilution 1:100 and washed twice with flow buffer. Cells were analyzed for percent positive and Mean Fluorescence Intensity (MFI) to determine the antibody binding using Fortessa (BD Bioscience).
(§2) The experiments were conducted using assays described above. 20 antibodies were characterized further based on their binding to human DCs, cyno DCs, Raji cells and HEK-Blue™ CD40L cells.

Assay [8] addresses T1, Full length human CD40 (huCD40) on cells. Kind of assay: flow cytometry, human mature DCs. Here is the method:
as §1, §2

Assay [9] has the same target. Kind of assay: flow cytometry, HEK-Blue CD40L cells.
The target is the same in assay [10]. Kind of assay: flow cytometry, HEK-Blue CD40L cells. The source holds these as a separate data set.
Target sequence in this assay (P25942 21-277): as the sequence (P25942 21-277) above
Assay [11] deals with T3, human CD40 (SPR analyte) (human, UniProt P25942 21-193).
T3 construct: also called huCD40-ECD
Kind of assay: SPR ProteOn XPR36, mAb captured by anti-human IgG Fc, CD40 as analyte, 25 C. The method, then:
(§3) Affinity measurements were performed using Surface Plasmon Resonance (SPR) using a ProteOn XPR36 system (BioRad). […] Approximately 5000 RU (response units) of mAbs were immobilized. The kinetic experiments were performed at 25° C. in running buffer (DPBS+0.01% P20+100 μg/ml BSA). To perform kinetic experiments, 200 RU of mAbs were captured followed by injections of analytes (human or cyno CD40) at 5 concentrations (in a 4-fold serial dilution). The association phase was monitored for 3 minutes at 50 μL/min, then followed by 15 minutes of buffer flow (dissociation phase). The chip surface was regenerated with two 18 second pulses of 100 mM H₃PO₄ (Sigma, Cat#7961) at 100 μL/min.
(§4) The collected data were processed using ProteOn Manager software. First, the data was corrected for background using inter-spots. Then, double reference subtraction of the data was performed by using the buffer injection for analyte injections. The kinetic analysis of the data was performed using a Langmuir 1:1 binding model. The result for each mAb was reported in the format of Ka (On-rate), Kd (Off-rate) and KD (equilibrium dissociation constant).
(§5) The parameters reported in this table were obtained from a 1:1 Langmuir binding model for all samples. Affinity, KD=kd/ka.

Assay [12] concerns the target T4, cyno CD40 (SPR analyte) (Macaca fascicularis (cynomolgus), UniProt P25942 21-193 (human entry), limits assumed).
T4 construct: also called cCD40-ECD
T4 chain: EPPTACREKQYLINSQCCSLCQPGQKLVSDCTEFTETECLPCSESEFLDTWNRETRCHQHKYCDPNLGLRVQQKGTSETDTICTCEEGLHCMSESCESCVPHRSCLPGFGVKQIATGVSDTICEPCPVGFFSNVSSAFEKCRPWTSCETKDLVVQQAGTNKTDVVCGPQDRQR
Kind of assay: SPR ProteOn XPR36, mAb captured by anti-human IgG Fc, cyno CD40 as analyte, 25 C. The method, then: as §3, §4

The target in assay [13] is T3, human CD40 (SPR analyte). Kind of assay: SPR ProteOn XPR36, mAb captured, CD40 as analyte, 25 C; lower end of the range of n = 2. The method, then:
as §3, §4, §5

Assay [14] deals with T3, human CD40 (SPR analyte). The assay is described as follows: SPR ProteOn XPR36, mAb captured, CD40 as analyte, 25 C; upper end of the range of n = 2. The method, then: as §3, §4, §5
Assay [15] concerns the target T4, cyno CD40 (SPR analyte). Kind of assay: SPR ProteOn XPR36, mAb captured, cyno CD40 as analyte, 25 C; did not fit well to 1:1 model. The method, then: as §3, §4, §5
For assay [16], the target named is T3, human CD40 (SPR analyte). The assay is described as follows: SPR ProteOn XPR36, mAb captured, CD40 as analyte, 25 C; average of n = 2; did not fit well to 1:1 model. The method, then:
as §3, §4, §5

In assay [17] the target is T3, human CD40 (SPR analyte). Kind of assay: SPR ProteOn XPR36, mAb captured, CD40 as analyte, 25 C; lower end of the range of n = 2; lower end of the range of the n = 2 replicates. Here is the method: as §3, §4, §5
In assay [18] the target is T3, human CD40 (SPR analyte). Kind of assay: SPR ProteOn XPR36, mAb captured, CD40 as analyte, 25 C; upper end of the range of n = 2; upper end of the range of the n = 2 replicates. The method, then: as §3, §4, §5
In assay [19] the target is T1, Full length human CD40 (huCD40) on cells. Kind of assay: flow cytometry, human DCs; separate experiment.
Target sequence in this assay (P25942 21-277): as the sequence (P25942 21-277) above
Assay [20] has the same target. The assay is described as follows: flow cytometry, human B cells; separate experiment.
Target sequence in this assay (P25942 21-277): as the sequence (P25942 21-277) above
For assay [21] the target is unchanged. The assay is described as follows: flow cytometry, HEK-Blue CD40L cells; separate experiment.

B1: C40M18 (antibody, human IgG1, lambda, V domains shown)
VH: EVQLVESGGGLVQPGGSLRLSCAASGFTFSSYAMSWVRQAPGKGLEWVSIINNNVGRTYYADSVKGRFTISRDNSKNTLYLQMNSLRAEDTAVYYCAKEGGDYYYYGMDVWGQGTTVTVSS
VL: SYELTQPPSVSVSPGQTASITCSGDKLGDKYVCWYQQKPGQSPVVVIYQDSKRPSGIPERFSGSNSGNTATLTISGTQAMDEAYYYCQAWVSSTVVFGGGTKLTVLG
notes: Full-length IgG1/lambda; from OmniRat (OMT); VH C40H48, VL C40L64
B1: in [1], the “B cells EC50, CD23 surface expression, with cross-linker” value is 0.306 µg/mL; the “B cells EC50, CD80 surface expression, with cross-linker” value was 0.0481 µg/mL; the “B cells EC50, CD83 surface expression, with cross-linker” value came out at 0.0624 µg/mL; the “B cells EC50, CD86 surface expression, with cross-linker” value came to 0.00873 µg/mL. For the same molecule, the “B cells EC50, HLA-DR surface expression, with cross-linker” value in assay [1] came to 0.0239 µg/mL. Besides, in [2], the “DC EC50, CD80 surface expression, with cross-linker” value worked out at 0.0523 µg/mL; the “DC EC50, CD83 surface expression, with cross-linker” value was found to be 0.0478 µg/mL; the “DC EC50, CD86 surface expression, with cross-linker” value is 0.0302 µg/mL; the “DC EC50, HLA-DR surface expression, with cross-linker” value stood at 0.0105 µg/mL. Further, in assay [3], the “EC50, Human B cells (CD83)” value came to 0.0226 µg/mL; the “EC50, Human DC (HLA-DR)” value was 0.166 µg/mL; the “EC50, agonistic activity on HEK-Blue™ CD40L cells (NF-κB/SEAP)” value was determined as 0.0696 µg/mL. Further, the midpoint of the response in assay [4], the EC50, lay at 0.267 µg/mL. A half-maximal effect in [5] (EC50) was put at 0.073 µg/mL. In [6], the midpoint of the response, the EC50, lay at 0.11 µg/mL. Besides, the half-maximal effective concentration (EC50) – broadly, the concentration giving half of the maximal effect – in assay [7] was found to be 0.0389 µg/mL. In [8], this molecule registered an EC50 of 0.352 µg/mL. The EC50 in [9] turned out to be 0.126 µg/mL. This molecule gave an EC50 in assay [10] of 0.15 µg/mL. In the assay with human CD40 (SPR analyte) [11], binding was characterised by a dissociation constant (Kd) of 0.151 nM; the koff (in general, the first-order rate constant of dissociation) turned out to be 0.000162 s⁻¹; the kon – broadly, the rate constant with which the complex forms – was 1.07e+06 M⁻¹ s⁻¹. In the assay with cyno CD40 (SPR analyte) [12], binding was characterised by a dissociation constant (Kd) of 0.0712 nM, the koff amounted to 9.41e-05 s⁻¹ and the on-rate (kon) came out at 1.32e+06 M⁻¹ s⁻¹.

B2: C40M55 (antibody, human IgG1, kappa, V domains shown)
VH: QVQLVQSGAEVKKPGSSVKVSCKASGGTFSSYAISWVRQAPGQGLEWMGGIIPIFGTANYAQKFQGRVTITADESTSTAYMELSSLRSEDTAVYYCARDGYRRYGIGRYGFDYWGQGTLVTVSS
VL: not shown
notes: Full-length IgG1/kappa; from phage display
Regarding B2, in [1], the “B cells EC50, CD23 surface expression, with cross-linker” value came out at 0.0616 µg/mL; the “B cells EC50, CD80 surface expression, with cross-linker” value was 0.00143 µg/mL; the “B cells EC50, CD83 surface expression, with cross-linker” value amounted to 0.00125 µg/mL; the “B cells EC50, CD86 surface expression, with cross-linker” value worked out at 0.000646 µg/mL. In addition, the “B cells EC50, HLA-DR surface expression, with cross-linker” value in assay [1] was determined as 0.000437 µg/mL. Also, in [2], the “DC EC50, CD80 surface expression, with cross-linker” value turned out to be 0.0616 µg/mL; the “DC EC50, CD83 surface expression, with cross-linker” value was 0.103 µg/mL; the “DC EC50, CD86 surface expression, with cross-linker” value came out at 0.198 µg/mL; the “DC EC50, HLA-DR surface expression, with cross-linker” value was determined as 0.0811 µg/mL. In addition, in [5], the half-maximal effective concentration (EC50) stood at 0.0461 µg/mL. Also, the EC50 in assay [7] is 0.0218 µg/mL. Moreover, in assay [8], the response was half-maximal at 0.102 µg/mL (EC50). In assay [9], this molecule registered an EC50 of 0.0631 µg/mL. Also, the Kd (commonly the equilibrium constant for the complex coming apart) with human CD40 (SPR analyte) [13] came to 2.12 nM. The same molecule gave a Kd with human CD40 (SPR analyte) [14] of 2.17 nM. Also, in the assay with cyno CD40 (SPR analyte) [15], the Kd was 2.59 nM, the off-rate (koff) was 0.00215 s⁻¹ and the kon amounted to 831000 M⁻¹ s⁻¹. Moreover, in the assay with human CD40 (SPR analyte) [16], the Kd was 2.15 nM, the dissociation rate constant (koff) amounted to 0.00203 s⁻¹ and the kon was 944000 M⁻¹ s⁻¹. Further, in the assay with human CD40 (SPR analyte) [17], the off-rate constant (koff) was 0.00188 s⁻¹ and the kon was 868000 M⁻¹ s⁻¹. In the assay with human CD40 (SPR analyte) [18], the off-rate constant (koff) came out at 0.00217 s⁻¹ and the kon was 1.02e+06 M⁻¹ s⁻¹.

B3: C40M121 (antibody, human IgG1, lambda, V domains shown)
VH: QLQLQESGPGLVKPSETLSLTCTVSGGSISSSSYYWGWIRQPPGKGLEWIGNIYYRGDTYYSPSLKSRVTISVDTSKNQFSLKLSSVTAADTAVYYCAKGFRFDYWGQGTLVTVSS
VL: QSALTQPPSASGSPGQSVTISCTGTSSDVGGYNYVSWYQQHPGKAPKLMIYEVSKRPSGVPDRFSGSKSGNTASLTVSGLQAEDEADYYCSSYAGSNNLVFGGGTKLTVLG
Consider B3, for which, in assay [3], the “EC50, Human B cells (CD83), separate experiment” value was 0.000334 µg/mL; the “EC50, Human DC (HLA-DR), separate experiment” value was 0.0185 µg/mL; the “EC50, agonistic activity on HEK-Blue™ CD40L cells (NF-κB/SEAP), separate experiment” value was found to be 0.00633 µg/mL. Besides, the concentration giving a half-maximal response (EC50) in assay [19] is 0.0572 µg/mL. The half-maximal effective concentration (EC50) in [20] came out at 0.0228 µg/mL. Besides, the concentration giving a half-maximal response (EC50) in assay [21] turned out to be 0.464 µg/mL.

Values taken from patent publication US20170088624A1 (Janssen / Centocor, published 2017).
